The text below walks through data of paper PMC7246297.

Holding throughout (assay): ELAA
In data set [1] the target is Nucleocapsid (N) protein (SARS-CoV-2, UniProt P0DTC9 1-419).
Data set [2] deals with Spike receptor-binding domain (S-RBD-Fc) (SARS-CoV-2, UniProt P0DTC2 319-541).
Data set [3] deals with 3C-like protease (3CLpro) (SARS-CoV-2, UniProt P0DTD1 3264-3569).

B1: N Aptamer 2 (78 nt) (ssDNA)
DNA: GCAATGGTACGGTACTTCCGGATGCGGAAACTGGCTAATTGGTGAGGCTGGGGCGGTCGTGCAGCAAAAGTGCACGCT
Consider B1, for which the binding result in data set [1] was “binds”.

B2: N Aptamer 1 (88 nt) (ssDNA)
DNA: GCAATGGTACGGTACTTCCGGATGCGGAAACTGGCTAATTGGTGAGGCTGGGGCGGTCGTGCAGCAAAAGTGCACGCTACTTTGCTAA
Take B2: in data set [1], the binding result was “binds”.

B3: Aptamer n.c. (33 nt) (ssDNA)
DNA: GCAATGGTACGGTACTTCCGGATGCGGAAACTG
B3: the binding result in data set [1], in data set [2] and in data set [3] was “no binding” in each case.

B4: N Aptamer 3 (57 nt) (ssDNA)
DNA: GCAATGGTACGGTACTTCCGGATGCGGAAACTGGCTAATTGGTGAGGCTGGGGCGGT
For the molecule B4, the binding result in data set [1] is “binds”.
